Measurements published in paper PMC4814574.

Target: C/EBPα WT (ivt) (human, UniProt P49715 1-358)
Experiment: EMSA; supershift by C/EBPα antibody; 10 mM HEPES-KOH pH 7.9, 50 mM KCl, 2.5 mM MgCl2, 1 mM DTT, 10% glycerol, 1 ug BSA, 0.5 ug poly(dI-dC), 25 ul, on ice 20 min; 6% gel, 0.5x TBE, 4 °C

C/EBPα WT (ivt), sequence (P49715 whole entry): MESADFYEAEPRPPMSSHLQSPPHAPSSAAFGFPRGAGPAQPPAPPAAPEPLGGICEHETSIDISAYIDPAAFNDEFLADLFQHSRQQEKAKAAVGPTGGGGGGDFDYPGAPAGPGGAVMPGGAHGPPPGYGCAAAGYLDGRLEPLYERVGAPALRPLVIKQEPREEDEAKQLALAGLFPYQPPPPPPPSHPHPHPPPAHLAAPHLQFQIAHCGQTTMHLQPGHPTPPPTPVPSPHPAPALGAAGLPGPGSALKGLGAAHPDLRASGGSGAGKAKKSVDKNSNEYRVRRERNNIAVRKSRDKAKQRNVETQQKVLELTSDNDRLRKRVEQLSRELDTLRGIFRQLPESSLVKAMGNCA

B1: G-CSF receptor promoter C/EBP site oligonucleotide (dsDNA)
DNA 1: CTAGGGCTTGCGCAATCTATATTCG
DNA 2: CGAATATAGATTGCGCAAGCCCTA
binding result: binds
